Patent US20040009569A1, “Kinase crystal structures and materials and methods for kinase activation” (priority 2001, published 2004)
“Also recorded” adds a separate entry of the source. Read-outs that look alike come from different tables or passages of the source. Square brackets hold non-standard residues; d marks the D form. Peptide text beside a SMILES is read from it. pS = N[C@@H](COP(=O)(O)O)C(=O)O

Tests used:
[1] = target: T1, pΔPH-PKB-ΔC (PKBβ residues 146 to 460, phosphorylated in vitro on Thr-309) (Homo sapiens, UniProt P31751); assay: Protein kinase B assay with Crosstide as substrate, peptide stimulation of pΔPH-PKB-ΔC; format: biochemical; details: for fold lower affinity than PIFtide, from estimated EC50: PKB not phosphorylated on Ser 474; for stimulation of pΔPH-PKB-ΔC activity (in words): PIFtide peptides at 210-250 μM, PKB HM-peptide up to 1.2 mM
T1 construct: pΔPH-PKB-ΔC (residues 146 to 460, phosphorylated in vitro on Thr-309); 6xHis (N, cleaved yes); made in house; host or cells: Sf9 insect cells / baculovirus (pFastBacHTa)
Procedure: To test the model that Ser 474 phosphorylation promotes an interaction between the hydrophobic motif and the induced hydrophobic groove of the N-terminal lobe, thereby causing an allosteric activation of the kinase, the ability of peptides modelled on the hydrophobic motif of PKB to activate the enzyme via an intermolecular association with the N-terminal lobe was assessed.
(§1) PKB was assayed essentially as described by Andjelkovic et al. (1999) with 30 μM Crosstide (GRPRTSSAEG) as substrate except the protein kinase A inhibitor peptide was not added to the reactions. For peptide stimulation experiments the various peptides were dissolved in water and added to the kinase assay mix prior to adding the PKB protein. Peptides were synthesized by Franz Fischer at the FMI or purchased from Neosystem, Strasburg, France.
(§2) All experiments were performed in either duplicate or triplicate.

[2] = target: T2, ΔPH-PKB phosphorylated on both Thr 309 and Ser 474 (Homo sapiens, UniProt P31751); assay: Protein kinase B assay with Crosstide, peptide stimulation of doubly phosphorylated ΔPH-PKB; format: biochemical
T2 construct: Purification of ΔPH-PKBβ-ΔC (Residues 146-460) and ΔPH-PKBβ (Residues 146-481); 6xHis (N, cleaved yes); made in house; host or cells: Sf9 insect cells / baculovirus (pFastBacHTa)
Procedure: as §1, §2

[3] = target: T3, His tagged pΔPH-PKB-ΔC wild type (Homo sapiens, UniProt P31751); assay: PIFtide responsiveness of His tagged wild type pΔPH-PKB-ΔC expressed in HEK cells; format: biochemical; details: incomplete Thr 309 phosphorylation
T3 construct: pΔPH-PKB-ΔC (residues 146 to 460, phosphorylated in vitro on Thr-309); made in house; host or cells: HEK cells (transient expression), purified on Ni-NTA agarose
Procedure: To test the notion that a hydrophobic groove is induced in PKB to engage the hydrophobic motif, and activate the kinase, a series of His tagged pΔPH-PKB-ΔC hydrophobic groove mutants were prepared and their responsiveness to PIFtide assessed. PKB mutants were transiently expressed in HEK cells, phosphorylated in vitro with PDK1, and purified using Ni-NTA agarose. […] Wild type PKB prepared using this procedure was stimulated ˜5-fold by 130 μM PIFtide (FIG. 6B).
as §1

pΔPH-PKB-ΔC = target: T4, pΔPH-PKB-ΔC (Homo sapiens, UniProt P31751); assay: Isothermal titration calorimetry, peptide binding to pΔPH-PKB-ΔC
T4 construct: pΔPH-PKB-ΔC (residues 146 to 460, phosphorylated in vitro on Thr-309); 6xHis (N, cleaved yes); made in house; host or cells: Sf9 insect cells / baculovirus (pFastBacHTa)
Procedure: (C) Isothermal titration calorimetry measurements of the binding of PIFtide to pΔPH-PKB-ΔC (left) and ΔPH-PKB-ΔC (right). Upper panel, raw data of the titration of PIFtide into pΔPH-PKB-ΔC. Lower panel, integrated heats of injections, corrected for the heat of dilution, with the solid line corresponding to the best fit of the data using the MicroCal software.
Using isothermal titration calorimetry, the affinity between PIFtide and both pΔPH-PKB-ΔC and ΔPH-PKB-ΔC was determined (FIG. 5C). […] The observed large decrease in entropy is […] typical of protein-peptide interactions, for example SH2-domain-phosphotyrosine peptide complexes (Ladbury et al., 1996), and is consistent with an ordering of both the protein, presumably the αB- and αC-helices of the N-lobe, and peptide on complex formation.

[4] = target: His tagged pΔPH-PKB-ΔC hydrophobic groove mutant V194A-V198A (human) (UniProt P31751); assay: cell-based or functional assay
[5] = target: His tagged pΔPH-PKB-ΔC, wild type, transiently expressed in HEK cells (human) (UniProt P31751); assay: cell-based or functional assay
[6] = target: pΔPH-PKBβ-ΔC (human PKBβ residues 146 to 460, phosphorylated in vitro on Thr-309) (human) (UniProt P31751); assay: cell-based or functional assay
[7] = target: ΔPH-PKB (human PKBβ residues 146-481) phosphorylated on Thr 309 (human) (UniProt P31751); assay: cell-based or functional assay
[8] = target: ΔPH-PKBβ-ΔC (human PKBβ residues 146 to 460, not phosphorylated on Thr-309) (human) (UniProt P31751); assay: isothermal titration calorimetry
[9] = target: pΔPH-PKBβ-ΔC (human PKBβ residues 146 to 460, phosphorylated in vitro on Thr-309) (human) (UniProt P31751); assay: cell-based or functional assay; remark: listed apart in the source
[10] = assuming activation at saturating peptide similar to that induced by PIFtide, read-out: EC50 estimated from FIG. 5A

pΔPH-PKBβ-ΔC (human PKBβ residues 146 to 460, phosphorylated in vitro on Thr-309) (human), sequence (P31751 146-460, stated change not applied): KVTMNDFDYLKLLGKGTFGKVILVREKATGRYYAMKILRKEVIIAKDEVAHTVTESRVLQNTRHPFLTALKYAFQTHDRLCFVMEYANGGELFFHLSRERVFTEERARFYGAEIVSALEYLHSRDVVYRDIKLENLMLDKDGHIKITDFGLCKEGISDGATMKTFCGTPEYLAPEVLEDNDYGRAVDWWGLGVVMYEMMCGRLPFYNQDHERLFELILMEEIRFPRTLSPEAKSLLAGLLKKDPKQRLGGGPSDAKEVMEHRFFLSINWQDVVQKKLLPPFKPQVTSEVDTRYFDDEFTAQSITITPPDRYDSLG
T1 sequence (P31751 146-460, stated change not applied): as above
ΔPH-PKBβ-ΔC (human PKBβ residues 146 to 460, not phosphorylated on Thr-309) (human), sequence (P31751 146-460, stated change not applied): as above
His tagged pΔPH-PKB-ΔC hydrophobic groove mutant V194A-V198A (human), sequence (P31751 146-460 V194A/V198A limits assumed): as the sequence (P31751 146-460, stated change not applied) above, with V49A, V53A counted along it
T3 sequence (P31751 146-460, stated change not applied): as the sequence (P31751 146-460, stated change not applied) above
T4 sequence (P31751 146-460, stated change not applied): as above
His tagged pΔPH-PKB-ΔC, wild type, transiently expressed in HEK cells (human), sequence (P31751 146-460, stated change not applied): as above
T2 sequence (P31751 146-481, stated change not applied): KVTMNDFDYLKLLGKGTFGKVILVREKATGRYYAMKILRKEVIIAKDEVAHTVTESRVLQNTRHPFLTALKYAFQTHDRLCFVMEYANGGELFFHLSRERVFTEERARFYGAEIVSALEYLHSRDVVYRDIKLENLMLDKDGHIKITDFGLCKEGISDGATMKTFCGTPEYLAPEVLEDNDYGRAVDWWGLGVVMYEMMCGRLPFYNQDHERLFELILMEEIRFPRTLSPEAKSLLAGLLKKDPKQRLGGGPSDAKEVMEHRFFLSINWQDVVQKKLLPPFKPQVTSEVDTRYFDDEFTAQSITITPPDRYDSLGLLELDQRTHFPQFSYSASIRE

With CC[C@H](C)[C@H](NC(=O)[C@H](CO)NC(=O)[C@H](C)NC(=O)[C@H](CO)NC(=O)[C@H](Cc1ccc(O)cc1)NC(=O)[C@H](COP(=O)(O)O)NC(=O)[C@H](Cc1ccccc1)NC(=O)[C@H](CCC(N)=O)NC(=O)[C@@H]1CCCN1C(=O)[C@H](Cc1ccccc1)NC(=O)[C@H](Cc1c[nH]cn1)NC(=O)[C@@H](NC(=O)[C@H](CCCNC(=N)N)NC(=O)[C@H](CCC(N)=O)NC(=O)[C@H](CC(=O)O)NC(=O)[C@H](CC(C)C)NC(=O)[C@H](CCC(=O)O)NC(=O)[C@H](CC(C)C)NC(=O)[C@H](CC(C)C)NC(=O)CN)[C@@H](C)O)C(=O)N[C@@H](CCCNC(=N)N)C(=O)N[C@@H](CCC(=O)O)C(=O)O [HM-P, GLLELDQRTHFPQFpSYSASIRB] (H-GLLELDQRTHFPQF[pS]YSASIRE-OH; N-terminus and C-terminus assumed) the “fold lower affinity than PIFtide, from estimated EC50” value [1] was roughly 1000 fold, the EC50 [1, 10] was 2300 µM and the “activation of ΔPH-PKB phosphorylated on both Thr 309 and Ser 474 (in words)” value [2] was “did not further activate”. The “activation of wild type PKB by PKB HM-peptide (in words)” value [3] was “did not elicit measurable activation”.

In the case of CC[C@H](C)[C@H](NC(=O)[C@H](Cc1ccc(O)cc1)NC(=O)[C@H](C)NC(=O)[C@H](Cc1ccccc1)NC(=O)[C@H](CC(=O)O)NC(=O)[C@H](CCCNC(=N)N)NC(=O)[C@H](Cc1ccccc1)NC(=O)[C@H](CCSC)NC(=O)[C@H](CCC(=O)O)NC(=O)[C@H](CCC(N)=O)NC(=O)[C@H](CCC(=O)O)NC(=O)[C@H](CCC(=O)O)NC(=O)[C@H](CCC(=O)O)NC(=O)[C@H](CO)NC(=O)[C@H](CC(C)C)NC(=O)[C@@H](NC(=O)[C@H](CCCNC(=N)N)NC(=O)[C@@H]1CCCN1C(=O)[C@H](CCC(=O)O)NC(=O)[C@@H](N)CCCNC(=N)N)[C@@H](C)CC)C(=O)N[C@@H](C)C(=O)N[C@@H](CC(=O)O)C(=O)N[C@@H](Cc1c[nH]c2ccccc12)C(=O)O [PIFtide(D->A)] (H-REPRILSEEEQEMFRDFAYIADW-OH; N-terminus and C-terminus assumed), the “fold lower affinity than PIFtide, from EC50” value [1] is reported as 10 fold, the EC50 ([1]; Crosstide substrate, value of PIFtide(D->A) called estimated, read-out: EC50 for activation of pΔPH-PKB-ΔC) is reported as 30 µM and the “maximal activation of pΔPH-PKB-ΔC compared with wild type PIFtide (in words)” value ([1]; saturating / high concentrations of the mutant peptide) is reported as “identical to that of the wild type peptide; also recorded: could activate PKB maximally”. The “fold lower affinity relative to PIFtide, ITC” value (pΔPH-PKB-ΔC) was “approximately 25 fold”.

CC[C@H](C)[C@H](NC(=O)[C@H](CO)NC(=O)[C@H](C)NC(=O)[C@H](CO)NC(=O)[C@H](Cc1ccc(O)cc1)NC(=O)[C@H](CC(=O)O)NC(=O)[C@H](Cc1ccccc1)NC(=O)[C@H](CCC(N)=O)NC(=O)[C@@H]1CCCN1C(=O)[C@H](Cc1ccccc1)NC(=O)[C@H](Cc1c[nH]cn1)NC(=O)[C@@H](NC(=O)[C@H](CCCNC(=N)N)NC(=O)[C@H](CCC(N)=O)NC(=O)[C@H](CC(=O)O)NC(=O)[C@H](CC(C)C)NC(=O)[C@H](CCC(=O)O)NC(=O)[C@H](CC(C)C)NC(=O)[C@H](CC(C)C)NC(=O)CN)[C@@H](C)O)C(=O)N[C@@H](CCCNC(=N)N)C(=O)N[C@@H](CCC(=O)O)C(=O)O [PKB HM-D] (H-GLLELDQRTHFPQFDYSASIRE-OH; N-terminus and C-terminus assumed) was tested, and the “fold lower affinity than PIFtide, from estimated EC50” value [1] was roughly 1000 fold and the EC50 [1, 10] was 3600 µM.

For GLLELDQRTHFPQFSYSASIRE [PKB HM-S], the “stimulation of pΔPH-PKB-ΔC activity (in words)” value ([1]; Crosstide substrate) was “did not stimulate”.

“MFRDFDYIADW [PIFtide1, 11-residue peptide encompassing the six-residue hydrophobic motif of PIFtide]” was tested, and the “stimulation of pΔPH-PKB-ΔC activity (in words)” value ([1]; Crosstide substrate) was “essentially recapitulates the activation”.

With “PIFtide (synthetic peptide encompassing the PRK2 hydrophobic motif)” the PIFtide activation relative to wild type (% of wild type) [4] was 25, the stimulation of PKB kinase activity by 130 µM PIFtide [5] was 5 fold and the EC50 of activation of kinase activity [6] was 3 µM. It also gave an activation of PKB kinase activity [6] of 15 fold, a peptide concentration giving maximum and saturable activation [6] of 20 µM and a specific activity of pΔPH-PKB-ΔC maximally activated by PIFtide [6] of 350 nmol/min/mg. For the same molecule, the activation of PKB kinase activity [7] was 5 fold, the TΔS [8] was -9.2 kcal/mol and the ΔH [8] was -16 kcal/mol.

With “PKB HM-P (peptide modelled on the phosphorylated hydrophobic motif of PKBβ, residues 460-481)” the estimated EC50 of activation of kinase activity [6] was 2300 µM, the fold lower affinity than PIFtide, from the estimated EC50 of activation [6] was 1000 fold and the stimulation of PKB kinase activity towards Crosstide [6] was 4 fold.

B1: PKB HM-D (PKB hydrophobic motif peptide with aspartate at position 474) (peptide)
peptide: GLLELDQRTHFPQFDYSASIRE
In the case of B1, the estimated EC50 of activation of kinase activity [9] is reported as 3600 µM, the fold lower affinity than PIFtide, from the estimated EC50 of activation [9] is reported as 1000 fold and the stimulation of PKB kinase activity towards Crosstide [9] is reported as 3 fold.
